Reference: publication PMC12232886, “Multiple and Alternative Sites Make Tau Protein an Adaptable Sticky Surface for the SH3 Domain of Fyn Kinase” (Angewandte Chemie (International Ed. in English), 2025)
Like-named read-outs stand apart in the source and are kept apart here.

Target: T1, Fyn-SH3 (Homo sapiens, UniProt P06241)
T1 construct: 82-143) was cloned into the pET-TEV; His-tag (TEV-cleavable, pET-TEV vector) (N, cleaved yes); made in house; host or cells: E. coli BL21(DE3)
Assay: Isothermal titration calorimetry (ITC), Fyn-SH3 titrated into Tau fragments
Assay type: binding
Settings: 20 mM potassium phosphate pH 6.8, 25 °C, error from data fitting
From the text: Figure 3 ITC analysis of Fyn‐SH3 binding to Tau. ITC measurements of Fyn‐SH3 titrated into Tau fragments 151–372 (a), 151–243 (b), 151–372 Δ175–179 (c), 151–372 Δ215–219 (d), 151–372 Δ175–179 Δ215–219 (e). The upper and lower panels show the raw thermograms (DP, differential power), and the integrated heats corrected for the heat of dilution (ΔH), respectively. The blue line in the latter panels represents the fit curve. […]
Isothermal Titration Calorimetry (ITC)
For ITC measurements, purified Fyn-SH3 and Tau proteins were dialyzed overnight against 20 mM potassium phosphate buffer (pH 6.8). Concentrations of proteins were measured using a NanoDrop instrument (Thermo Fisher Scientific), by using molar extinction coefficients at 280 nm. Calorimetric titrations were carried out on a MicroCal PEAQ-ITC instrument (Malvern) at 25 °C. The sample cell contained 20 μM Tau protein and the injection syringe 0.6 mM or 1 mM solution of Fyn-SH3. Only for the Tau mutant 151-372 Δ175-179 Δ215-219, the experiment was conducted with 60 μM Tau protein in the cell and 1.2 mM SH3 in the syringe. Titrations were carried out with a preliminary 0.4 μl injection, followed by 2 μl injections with time intervals of 150 sec, with stirring rate of 500 rpm and reference power of 10 μcal/sec. A blank titration (ligand into buffer) was recorded in the same experimental conditions and the dilution heats were subtracted to the data.
Binding isotherms were analyzed with the MicroCal PEAQ-ITC analysis software, using the two-sets of sites or the one-set of sites fitting models. […]

[1] = one-set of sites model, 20 μM Tau in cell, 0.6 mM or 1 mM SH3 in syringe, read-out: Kd

T1 sequence (P06241 82-143): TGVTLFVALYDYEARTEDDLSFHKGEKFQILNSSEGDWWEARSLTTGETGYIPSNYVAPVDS

## Tau 151–372 Δ215‐219: Tau 151-372 deletion mutant lacking the PxxP motifs in HSPR2
one-set of sites model, 20 μM Tau in cell, 0.6 mM or 1 mM SH3 in syringe, listed as Tau 151–372 Δ215–219, read-out: Kd
  Kd: ~12 µM
one-set of sites model, 20 μM Tau in cell, 0.6 mM or 1 mM SH3 in syringe, listed as Δ215–219, read-out: Kd
  Kd: 13 µM
[1]
  Kd: 12.7 ± 4.4 µM

## Tau 151–372 Δ175‐179 Δ215‐219: Tau 151-372 double deletion mutant lacking the PxxP motifs in HSPR1 and HSPR2
two-sets of sites model, site I, 60 μM Tau in cell, 1.2 mM SH3 in syringe, listed as Δ175–179 Δ215–219, read-out: KdI
  Kd: 10 µM
two-sets of sites model, site I, 60 μM Tau in cell, 1.2 mM SH3 in syringe, read-out: KdI
  Kd: 10.3 ± 2.2 µM
two-sets of sites model, site II, 60 μM Tau in cell, 1.2 mM SH3 in syringe, read-out: KdII
  Kd: 347 ± 79 µM

## Tau 151–372: recombinant Tau fragment 151-372, his-tag cleaved, containing all three HSPRs
two-sets of sites model, site I, 20 μM Tau in cell, 0.6 mM or 1 mM SH3 in syringe, read-out: KdI
  Kd: 2.5 ± 1.1 µM
two-sets of sites model, site II, 20 μM Tau in cell, 0.6 mM or 1 mM SH3 in syringe, listed as Tau151‐372, read-out: KdII
  Kd: 38 µM
two-sets of sites model, site II, 20 μM Tau in cell, 0.6 mM or 1 mM SH3 in syringe, read-out: KdII
  Kd: 37.6 ± 22.7 µM

## Tau 151–243: recombinant Tau fragment 151-243 lacking the HSPR3 and the MBD
[1]
  Kd: ~12 µM

## Tau 151–372 Δ175‐179: Tau 151-372 deletion mutant lacking the PxxP motifs in HSPR1
one-set of sites model, 20 μM Tau in cell, 0.6 mM or 1 mM SH3 in syringe, listed as Δ175–179, read-out: Kd
  Kd: 12 µM
[1]
  Kd: 12.2 ± 5.4 µM
